Results published in patent publication US20110046056A1, “APOA-1 PEPTIDE MIMETICS” (priority 2007, published 2011).
*1 amine or outer side, *2 acyl side, *3 side chain or, on linkers, in order; H or OH if unused. Bridges are numbered along the chain shown (N, C = ends). Where no end group is shown, it is not given here. Side-chain parts run from the residue outwards. [ ]: non-standard residue; d: D form. S6H = (2S)-2-aminooct-7-enoic acid, C=CCCCC[C@H](N[*:1])C(=O)[*:2]; S7H3 = (2S)-2-aminononanoic acid, CCCCCCC[C@H](N[*:1])C(=O)[*:2]; OXA12 = PEG spacer connecting glycine to cholesterol; Ala(E-styryl) = N[C@@H](C/C=C/c1ccccc1)C(=O)O; Gly(oct-7-en-1-yl) = C=CCCCCCC[C@H](N)C(=O)O; dGly(6-heptenyl) = C=CCCCCC[C@@H](N)C(=O)O; Ala(5-hexenyl) = C=CCCCCC[C@H](N)C(=O)O; Gla = N[C@@H](CC(C(=O)O)C(=O)O)C(=O)O; S8H3 = not defined here; MA = not defined here; Aib = CC(C)(N)C(=O)O

Biological target: ATP-binding cassette transporter A1 (ABCA1) (mouse, UniProt P41233 1-2261)
Sequence (P41233 whole entry): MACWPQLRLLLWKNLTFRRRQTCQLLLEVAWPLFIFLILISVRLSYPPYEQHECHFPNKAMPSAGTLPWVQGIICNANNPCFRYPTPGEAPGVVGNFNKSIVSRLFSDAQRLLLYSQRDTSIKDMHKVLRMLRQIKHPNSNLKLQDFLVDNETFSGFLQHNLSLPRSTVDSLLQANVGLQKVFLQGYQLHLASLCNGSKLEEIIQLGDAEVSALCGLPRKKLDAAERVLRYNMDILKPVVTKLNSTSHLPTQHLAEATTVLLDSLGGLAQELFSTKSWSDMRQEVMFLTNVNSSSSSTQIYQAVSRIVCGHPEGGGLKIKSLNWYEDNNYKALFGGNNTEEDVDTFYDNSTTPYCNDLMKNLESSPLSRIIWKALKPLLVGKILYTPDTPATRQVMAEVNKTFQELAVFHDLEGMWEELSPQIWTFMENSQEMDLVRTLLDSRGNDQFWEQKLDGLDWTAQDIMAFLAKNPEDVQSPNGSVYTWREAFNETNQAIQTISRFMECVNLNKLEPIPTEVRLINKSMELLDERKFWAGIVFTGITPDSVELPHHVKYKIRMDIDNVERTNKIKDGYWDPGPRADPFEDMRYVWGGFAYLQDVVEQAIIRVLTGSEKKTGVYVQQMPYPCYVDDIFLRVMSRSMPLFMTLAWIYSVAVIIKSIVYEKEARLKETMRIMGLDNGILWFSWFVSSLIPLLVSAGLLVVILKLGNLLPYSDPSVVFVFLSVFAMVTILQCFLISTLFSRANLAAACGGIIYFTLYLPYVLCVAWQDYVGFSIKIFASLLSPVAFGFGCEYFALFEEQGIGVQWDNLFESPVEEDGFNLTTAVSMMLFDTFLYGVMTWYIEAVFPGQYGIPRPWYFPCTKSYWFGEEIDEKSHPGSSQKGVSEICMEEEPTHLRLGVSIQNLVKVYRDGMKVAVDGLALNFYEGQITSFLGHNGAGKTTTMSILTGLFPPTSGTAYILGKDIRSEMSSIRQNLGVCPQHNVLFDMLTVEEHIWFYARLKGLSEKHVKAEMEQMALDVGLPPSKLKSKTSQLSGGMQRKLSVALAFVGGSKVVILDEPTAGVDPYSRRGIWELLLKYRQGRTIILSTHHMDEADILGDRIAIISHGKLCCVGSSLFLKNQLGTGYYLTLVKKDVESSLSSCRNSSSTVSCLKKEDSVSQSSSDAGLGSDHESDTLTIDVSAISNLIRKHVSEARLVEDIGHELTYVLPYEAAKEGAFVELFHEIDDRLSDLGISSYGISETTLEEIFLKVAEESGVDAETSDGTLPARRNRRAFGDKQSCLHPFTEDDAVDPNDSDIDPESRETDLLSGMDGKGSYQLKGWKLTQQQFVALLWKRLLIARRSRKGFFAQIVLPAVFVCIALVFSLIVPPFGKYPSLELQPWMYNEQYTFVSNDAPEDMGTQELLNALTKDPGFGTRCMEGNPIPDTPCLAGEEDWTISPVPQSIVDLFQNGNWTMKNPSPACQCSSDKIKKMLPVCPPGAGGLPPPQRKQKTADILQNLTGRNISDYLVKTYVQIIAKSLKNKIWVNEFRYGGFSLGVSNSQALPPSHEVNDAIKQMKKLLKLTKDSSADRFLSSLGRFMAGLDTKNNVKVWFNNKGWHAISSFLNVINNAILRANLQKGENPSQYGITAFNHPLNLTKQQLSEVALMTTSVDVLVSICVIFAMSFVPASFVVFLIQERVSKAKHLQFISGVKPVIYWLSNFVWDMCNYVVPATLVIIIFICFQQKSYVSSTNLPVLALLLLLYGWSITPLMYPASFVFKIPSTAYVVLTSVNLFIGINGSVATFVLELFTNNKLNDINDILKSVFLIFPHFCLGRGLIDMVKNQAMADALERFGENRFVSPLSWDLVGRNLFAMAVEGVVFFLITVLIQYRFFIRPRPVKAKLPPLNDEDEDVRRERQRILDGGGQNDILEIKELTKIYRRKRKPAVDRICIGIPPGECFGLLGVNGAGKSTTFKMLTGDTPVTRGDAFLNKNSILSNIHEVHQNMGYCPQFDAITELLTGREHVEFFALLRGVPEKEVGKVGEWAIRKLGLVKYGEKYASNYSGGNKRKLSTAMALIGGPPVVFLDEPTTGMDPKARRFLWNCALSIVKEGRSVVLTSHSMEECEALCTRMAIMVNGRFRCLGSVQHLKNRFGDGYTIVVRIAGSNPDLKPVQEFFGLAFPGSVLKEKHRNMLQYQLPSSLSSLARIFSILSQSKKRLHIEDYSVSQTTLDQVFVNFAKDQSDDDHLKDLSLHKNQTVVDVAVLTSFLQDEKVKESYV
Assay: cell-based or functional assay

Binder | ABCA1-dependent cholesterol efflux EC50 [nM] | further results
Ac-PVLDE[Ala(5-hexenyl)]REKLNE[Ala(5-hexenyl)]LEALKQ[Ala(5-hexenyl)]LK [CONS[S7H^6,13,20]] | 200 | 
Ac-PVLDEFREKLNE[Ala(5-hexenyl)]LEALKQKLKPVLDEFREKLNE[Ala(5-hexenyl)]LEALKQKLK [CONS[S7H^13]2] | 41000 | 
Ac-PVLDEFR[Gla]KLNE[Ala(5-hexenyl)]LEALKQKLK (not fully specified (C-terminus)) [CONS[GLA^8, S7H^13]] | 900 | 
Ac-PVLDE[Ala(5-hexenyl)]REKLNE[Ala(5-hexenyl)]LEALKQKLKGCPVLDE[Ala(5-hexenyl)]REKLNE[Ala(5-hexenyl)]LEALKQKLKGC (disulfide 24-48; also: homodimer of two 24-residue chains listed as one 48-residue chain, second N-terminal acetyl not placed) [(CONS[S7H^6,13]-GC)2] | 1500 | 
Ac-PVLDE[S7H3]REKLNE[S7H3]LEALKQKLK (not fully specified (C-terminus); printed as PVLDES7H3REKLNES7H3LEALKQKLK) [CONS[S7H3^6,13]] | 300 | 
Ac-PVLDE[Ala(E-styryl)]REKLNE[Ala(5-hexenyl)]LEALKQKLK [CON[(S)STYRA^6, S7H^13]] | 200 | 
Ac-PVLDEFREKLNEAL[Gla]ALKQKLK (not fully specified (C-terminus)) [GLA15/ALA13] | 234000 | 
Ac-PVLDE[Gly(oct-7-en-1-yl)]REKLNE[Gly(oct-7-en-1-yl)]LEALKQKLK [CONS[S8H^6,13]] | 400 | 
Ac-PVLDEFREKLNE[Aib]LEALKQKLK (not fully specified (C-terminus)) [AIB13] |  | ABCA1-dependent cholesterol efflux, % at 100 uM: 6%
Ac-P[Ala(5-hexenyl)]LDE[Ala(5-hexenyl)]REKLNE[Ala(5-hexenyl)]LEALKQ[Ala(5-hexenyl)]LK [CONS[S7H^2,6,13,20]] | 2000 | 
PXLDEXREKLNEXLXALKQKLK (not fully specified; N-terminal acetyl (Ac-Pro); S7H at 2, 6 and 13; Gla at 15) [CONS[GLA^15, S7H^2,6,13]] | 600 | 
Ac-P[Ala(5-hexenyl)]LDE[Ala(5-hexenyl)]REKLNE[Ala(5-hexenyl)]L[Gla]ALKQ[Ala(5-hexenyl)]LK [CONS[S7H^2,6,13,20, GLA^15]] | 2400 | 
PXLDEFREKLNEXLXALKQXLK (not fully specified; N-terminal acetyl (Ac-Pro); S7H at 2, 13 and 20; Gla at 15) [CONS[GLA^15, S7H^2,13,20]] | 7700 | 
Ac-[dP][dV][dL][dD][dE][dGly(6-heptenyl)][dR][dE][dK][dL][dN][dE][dE][dL][dE][dA][dL][dK][dQ][dK][dL][dK] (not fully specified (C-terminus)) [D-CONS[R7H^6]] |  | ABCA1-dependent cholesterol efflux, % at 100 uM: 19%
Ac-PVLDE[dGly(6-heptenyl)]REKLNE[Ala(5-hexenyl)]LEALKQ[Ala(5-hexenyl)]LK (not fully specified (C-terminus); printed as PVLDER7HREKLNES7HLEALKQS7HLK) [CONS[R7H^6, S7H^13,20]] | 100 | 
Ac-[dP][dV][dL][dD][dE][dGly(6-heptenyl)][dR][dE][dK][dL][dN][dE][dGly(6-heptenyl)][dL][dE][dA][dL][dK][dQ][dK][dL][dK] [D-CONS[R7H^6,13]] |  | ABCA1-dependent cholesterol efflux, % at 100 uM: 17.7%
Ac-P[Ala(5-hexenyl)]LDEFREKLNE[Ala(5-hexenyl)]LEALKQ[Ala(5-hexenyl)]LK [CONS[S7H^2,13,20]] | 3200 | 
Ac-P[Ala(5-hexenyl)]LDE[dGly(6-heptenyl)]REKLNE[Ala(5-hexenyl)]LEALKQKLK (not fully specified (C-terminus)) [CONS[R7H^6, S7H^2,13]] | 200 | 
Ac-P[Ala(5-hexenyl)]LDE[Ala(5-hexenyl)]REKLNE[Ala(5-hexenyl)]LEALKQKLK [CONS[S7H^2,6,13]] | 100 | 
PVLDEXREKLNEXLXALKQXLK (not fully specified; N-terminal acetyl (Ac-Pro); S7H at 6, 13 and 20; Gla at 15) [CONS[GLA^15, S7H^6,13,20]] | 500 | 
Ac-[dP][dV][dL][dD][dE][S6H][dR][dE][dK][dL][dN][dE][dGly(6-heptenyl)][dL][dE][dA][dL][dK][dQ][dK][dL][dK] (not fully specified (C-terminus)) [D-CONS[S6H^6, R7H^13]] | 1200 | 
Ac-PVLDE[Ala(5-hexenyl)]REKLNE[Ala(5-hexenyl)]LEALKQKLKGC([MA-OXA12-Gly-cholesterol]) (not fully specified; reading uncertain) [CONS[S7H^6,13]-GC-OXA12-CHOLESTEROL] |  | ABCA1-dependent cholesterol efflux, % at 30 uM: 1.9%
Ac-PVLDEFREKLNE[Ala(5-hexenyl)]L[Gla]ALKQKLK [CONS[S7H^13, GLA^15]] | 700 | 
Ac-[dP][dV][dL][dD][dE][Ala(5-hexenyl)][dR][dE][dK][dL][dN][dE][Ala(5-hexenyl)][dL][dE][dA][dL][dK][dQ][dK][dL][dK] (not fully specified (C-terminus)) [D-CONS[S7H^6,13]] | 3000 | 
Ac-PVLDE[Ala(5-hexenyl)]REKLNE[Ala(5-hexenyl)]LEALKQKLKGC(branched mPEG 40 kDa) [CONS[S7H^6,13]-GC-PEG40] |  | ABCA1-dependent cholesterol efflux, % at 100 uM: 1%
Ac-PVLDE[S8H3]REKLNE[S8H3]LEALKQKLK (reading uncertain) [CONS[S8H3^6,13]] | 600 | 
